doi:10.1101/2020.07.13.201285 (bioRxiv, 2020)

Target: the molecule itself
Assay: cross-linking

B1: recombinant human glutamine:fructose-6-phosphate amidotransferase 2 with C-terminal HisTag (rhGFAT2-his) (enzyme, UniProt O94808 2-682, looked up)
chain: CGIFAYMNYRVPRTRKEIFETLIKGLQRLEYRGYDSAGVAIDGNNHEVKERHIQLVKKRGKVKALDEELYKQDSMDLKVEFETHFGIAHTRWATHGVPSAVNSHPQRSDKGNEFVVIHNGIITNYKDLRKFLESKGYEFESETDTETIAKLIKYVFDNRETEDITFSTLVERVIQQLEGAFALVFKSVHYPGEAVATRRGSPLLIGVRSKYKLSTEQIPILYRTCTLENVKNICKTRMKRLDSSACLHAVGDKAVEFFFASDASAIIEHTNRVIFLEDDDIAAVADGKLSIHRVKRSASDDPSRAIQTLQMELQQIMKGNFSAFMQKEIFEQPESVFNTMRGRVNFETNTVLLGGLKDHLKEIRRCRRLIVIGCGTSYHAAVATRQVLEELTELPVMVELASDFLDRNTPVFRDDVCFFISQSGETADTLLALRYCKDRGALTVGVTNTVGSSISRETDCGVHINAGPEIGVASTKAYTSQFISLVMFGLMMSEDRISLQNRRQEIIRGLRSLPELIKEVLSLEEKIHDLALELYTQRSLLVMGRGYNYATCLEGALKIKEITYMHSEGILAGELKHGPLALIDKQMPVIMVIMKDPCFAKCQNALQQVTARQGRPIILCSKDDTESSKFAYKTIELPHTVDCLQGILSVIPLQLLSFHLAVLRGYDVDFPRNLAKSVTVE
- stoichiometry N: 4
